Sequences and labels used below:
B1: Alpha-tocopherol transfer protein, P49638 (parent)
chain: MAEARSQPSAGPQLNALPDHSPLLQPGLAALRRRAREAGVPLAPLPLTDSFLLRFLRARDFDLDLAWRLLKNYYKWRAECPEISADLHPRSIIGLLKAGYHGVLRSRDPTGSKVLIYRIAHWDPKVFTAYDVFRVSLITSELIVQEVETQRNGIKAIFDLEGWQFSHAFQITPSVAKKIAAVLTDSFPLKVRGIHLINEPVIFHAVFSMIKPFLTEKIKERIHMHGNNYKQSLLQHFPDILPLEYGGEEFSMEDICQEWTNFIMKSEDYLSSISESIQ

This data set covers variants of B1. As to conditions: Homo sapiens; pH 7.4; Thermal; Fluorescence; Tris 50mM; structure 1R5L; whole UniProt chain shown.
The Tm is the temperature at which the thermal transition is half complete. With F169A, the Tm worked out at 75.3 °C.

As to V206A, the Tm was found to be 78.2 °C.

Turning to V206D, the Tm stood at 76 °C.

As for M264D, the Tm was 68.8 °C.

With I202A, the Tm turned out to be 74.9 °C.

Consider I202D, for which the midpoint of thermal melting (Tm) turned out to be 73.6 °C.

As to F165A, the midpoint of thermal melting (Tm) is 82.4 °C.

Take F165D: the Tm came to 82.4 °C.

As for M209A, the melting temperature (Tm) stood at 82.8 °C.

On to M209D, for which the Tm turned out to be 79.5 °C.

Values taken from FireProtDB (doi:10.1016/j.jmb.2010.11.028).
